Data: publication PMC7538601, “Low-Zone IL-2 Signaling: Fusion Proteins Containing Linked CD25 and IL-2 Domains Sustain Tolerogenic Vaccination in vivo and Promote Dominance of FOXP3^+ Tregs in vitro” (Frontiers in Immunology, 2020)

T1: Full length murine CD25 on HEK cells (mouse, UniProt P01590 22-268)
T1 sequence (looked up): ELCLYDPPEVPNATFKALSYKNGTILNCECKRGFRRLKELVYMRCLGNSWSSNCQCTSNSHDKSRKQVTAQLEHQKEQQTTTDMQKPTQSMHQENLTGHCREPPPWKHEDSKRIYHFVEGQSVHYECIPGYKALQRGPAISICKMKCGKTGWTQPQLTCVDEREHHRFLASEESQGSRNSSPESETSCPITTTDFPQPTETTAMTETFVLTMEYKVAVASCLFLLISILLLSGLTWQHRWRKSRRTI


Experiments:
[1] = target: T1, Full length murine CD25 on HEK cells; test: cell-based or functional assay
[2] = target: the molecule itself; test: SEC; Superdex 200 Increase 10/300 GL, 0.5 ml/min, 10 mM HEPES pH 7.3, 140 mM NaCl; 500 ul sample at 0.5 mg/ml; apparent molecular weights against Bio-Rad gel filtration standard

proliferation ([3H]thymidine) of the IL-2 dependent mouse T cell line SJL-PLP.1; potency against mouse IL-2 [1]	Binder	binding result [2]
~320 fold less potent than IL-2	IL2-CD25 fusion protein (other, mouse, signal peptide in the construct; murine IL-2, aa1-169 of NP_032392; 23-aa flexible linker; murine soluble CD25 (IL-2 receptor alpha chain), aa22-236 of NP_032393; Glycosylated; about 70 kDa on SDS-PAGE, reducing and non-reducing; By SEC it runs as higher order multimers; also called IL2-CD25 FP; FP; source: HEK293F, stably transfected (pIRES AcGFP1), expression supernatant, purified (Ni-NTA); not …) APTSSSTSSSTAEAQQQQQQQQQQQQHLEQLLMDLQELLSRMENYRNLKLPRMLTFKFYLPKQATELKDLQCLEDELGPLRHVLDLTQSKSFQLEDAENFISNIRVTVVKLKGSDNTFECQFDDESATVVDFLRRWIAFCQSIISTSPQGGGGSTRGGGGSTGGGGSGGGGSELCLYDPPEVPNATFKALSYKNGTILNCECKRGFRRLKELVYMRCLGNSWSSNCQCTSNSHDKSRKQVTAQLEHQKEQQTTTDMQKPTQSMHQENLTGHCREPPPWKHEDSKRIYHFVEGQSVHYECIPGYKALQRGPAISICKMKCGKTGWTQPQLTCVDEREHHRFLASEESQGSRNSSPESETSCPITTTDFPQPTETTAMTETFVLTMEYK	binds
~32 fold less potent than IL-2	CD25-IL2 fusion protein (other, mouse, signal peptide in the construct; murine soluble CD25 (IL-2 receptor alpha chain), aa1-236 of NP_032393; 23-aa flexible linker; murine IL-2, aa20-169 of NP_032392; Glycosylated; about 70 kDa on SDS-PAGE, reducing and non-reducing; By SEC it runs as higher order multimers; also called CD25-IL2 FP; FP; source: HEK293F, stably transfected (pCMV), expression supernatant, purified (Ni-NTA); not shown: …) ELCLYDPPEVPNATFKALSYKNGTILNCECKRGFRRLKELVYMRCLGNSWSSNCQCTSNSHDKSRKQVTAQLEHQKEQQTTTDMQKPTQSMHQENLTGHCREPPPWKHEDSKRIYHFVEGQSVHYECIPGYKALQRGPAISICKMKCGKTGWTQPQLTCVDEREHHRFLASEESQGSRNSSPESETSCPITTTDFPQPTETTAMTETFVLTMEYKGGGGSTRGGGGSTGGGGSGGGGSSAPTSSSTSSSTAEAQQQQQQQQQQQQHLEQLLMDLQELLSRMENYRNLKLPRMLTFKFYLPKQATELKDLQCLEDELGPLRHVLDLTQSKSFQLEDAENFISNIRVTVVKLKGSDNTFECQFDDESATVVDFLRRWIAFCQSIISTSPQ	binds
